Experimental data: PMC8162480

B1: HB5 (FITC-labeled) (ssDNA)
DNA: AACCGCCCAAATCCCTAAGAGTCTGCACTTGTCATTTTGTATATGTATTTGGTTTTTGGCTCTCACAGACACACTACACACGCACA
B2: HB5-FITC-PL-Peptide probe (ssDNA)
DNA: B1 DNA
modifications: 5'-thiol-C6 conjugated via maleimide to …-PL-K(FITC)FK-Mal (PL = photocleavable o-nitrobenzyl linker)

Target: T1, HER2 epitope peptide (extracellular juxtamembrane region) (human, UniProt P04626)
T1 chain: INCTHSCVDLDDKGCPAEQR
Assay: bead-bound peptide pull-down, HPLC detection

Binder	Kd [nM]
B1	34.7
B2	67.4
